What was measured:
[1] = biological target: T1, 人PSMA ECD-AFH (可溶性人PSMA ECD，重组二聚体PSMA ECD) (human, UniProt Q04609 44-750); test: SPR Biacore T200, scFv-Fc captured by anti-human IgG, dimeric PSMA ECD as analyte
T1 construct: Expressed in HEK-293, IMAC then SEC; the dimer fraction was used; also called TSC033; HuPSMA-AFH

[2] = biological target: T1, 人PSMA ECD-AFH (可溶性人PSMA ECD，重组二聚体PSMA …); test: SPR Biacore, dimeric PSMA ECD
全长食蟹猴PSMA = biological target: T2, 全长食蟹猴PSMA (cynomolgus monkey, UniProt Q04609 1-750 (human entry)); test: MSD live-cell ELISA on CHOK1SV/cynoPSMA cells
T2 construct: On transfected CHO cells; also called TSC308; cynoPSMA
T2 chain: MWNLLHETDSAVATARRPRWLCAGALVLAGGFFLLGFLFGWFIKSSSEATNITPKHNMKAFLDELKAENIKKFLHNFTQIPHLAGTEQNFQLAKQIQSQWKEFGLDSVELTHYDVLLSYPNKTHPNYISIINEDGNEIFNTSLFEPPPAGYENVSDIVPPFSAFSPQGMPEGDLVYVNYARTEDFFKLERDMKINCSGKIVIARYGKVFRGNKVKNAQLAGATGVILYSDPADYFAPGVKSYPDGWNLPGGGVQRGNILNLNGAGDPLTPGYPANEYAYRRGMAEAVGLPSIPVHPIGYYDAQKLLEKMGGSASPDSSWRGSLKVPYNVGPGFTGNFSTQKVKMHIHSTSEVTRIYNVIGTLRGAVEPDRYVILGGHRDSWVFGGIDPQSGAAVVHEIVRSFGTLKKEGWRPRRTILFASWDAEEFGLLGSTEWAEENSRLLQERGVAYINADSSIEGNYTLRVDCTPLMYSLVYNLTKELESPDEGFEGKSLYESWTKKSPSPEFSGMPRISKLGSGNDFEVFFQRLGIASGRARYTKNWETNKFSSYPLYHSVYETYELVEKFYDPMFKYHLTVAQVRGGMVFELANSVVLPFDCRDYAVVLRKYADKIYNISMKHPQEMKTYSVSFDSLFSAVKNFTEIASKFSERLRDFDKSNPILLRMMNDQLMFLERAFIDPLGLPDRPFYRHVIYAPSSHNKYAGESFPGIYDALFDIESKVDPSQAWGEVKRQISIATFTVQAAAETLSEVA

[3] = biological target: T3, 人CD3ε (TCR/CD3复合物，Jurkat细胞) (human, UniProt P07766 23-207); test: flow cytometry on Jurkat cells, domain within anti-TA x anti-CD3ε constructs
T3 construct: whole, on cells; The other chains of the TCR/CD3 complex are present on the cells; also called CD3(+) Jurkat
T3 sequence (P07766 23-207): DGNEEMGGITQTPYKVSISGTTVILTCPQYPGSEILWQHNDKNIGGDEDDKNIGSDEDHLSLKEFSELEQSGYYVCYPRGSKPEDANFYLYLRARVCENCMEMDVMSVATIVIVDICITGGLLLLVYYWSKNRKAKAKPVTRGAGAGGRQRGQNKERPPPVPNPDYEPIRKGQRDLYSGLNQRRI

T1 sequence (Q04609 other isoform, or with tags, fused parts or gaps): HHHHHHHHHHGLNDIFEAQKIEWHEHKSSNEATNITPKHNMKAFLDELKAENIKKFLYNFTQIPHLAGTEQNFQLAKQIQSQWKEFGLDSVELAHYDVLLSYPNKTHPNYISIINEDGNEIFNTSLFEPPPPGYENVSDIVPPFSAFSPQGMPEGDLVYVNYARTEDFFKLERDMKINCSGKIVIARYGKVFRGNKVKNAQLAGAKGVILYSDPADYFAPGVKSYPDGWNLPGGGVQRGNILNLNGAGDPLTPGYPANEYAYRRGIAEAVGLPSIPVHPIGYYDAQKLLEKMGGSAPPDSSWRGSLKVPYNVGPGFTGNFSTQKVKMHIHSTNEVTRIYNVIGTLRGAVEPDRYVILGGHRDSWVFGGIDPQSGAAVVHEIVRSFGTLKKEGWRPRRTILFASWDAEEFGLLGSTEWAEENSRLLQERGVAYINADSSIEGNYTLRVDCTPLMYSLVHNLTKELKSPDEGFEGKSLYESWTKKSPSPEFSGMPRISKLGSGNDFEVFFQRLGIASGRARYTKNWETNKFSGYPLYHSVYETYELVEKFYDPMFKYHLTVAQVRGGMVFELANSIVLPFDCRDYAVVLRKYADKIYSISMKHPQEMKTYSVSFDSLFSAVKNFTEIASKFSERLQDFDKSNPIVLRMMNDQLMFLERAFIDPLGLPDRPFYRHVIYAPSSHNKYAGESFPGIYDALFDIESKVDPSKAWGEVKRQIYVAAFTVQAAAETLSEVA

B1: PSMA01012 (Fc fusion)
VH: QVQLVQSGAEVKKPGASVKVSCKASGYTFTDYYMHWVRQAPGQGLEWMGYFNPYNDYTRYAQKFQGRVTMTRDTSISTAYMELSSLRSDDTAVYYCARSDGYYDAMDYWGQGTTVTVSS
VL: DIQMTQSPSAMSASVGDRVTITCRASKSISKYLAWFQQKPGKVPKLRIHSGSTLQSGVPSRFSGSGSGTEFTLTISSLQPEDFATYYCQQHIEYPWTFGQGTKVEIKR
notes: Monospecific bivalent scFv-Fc, scFv in VL-VH orientation; also called TSC189 (结合结构域); 亲本构建体PSMA01012
[1]
  binding result: binds

B2: PSMA01023 (Fc fusion)
chain: DIQMTQSPSTLSASVGDRVTITCRASKSISKYLAWYQQKPGKAPKLLIHSGSSLESGVPSRFSGSGSGTEFTLTISSLQPDDFATYYCQQHIEYPWTFGQGTKVEIKGGGGSGGGGSGGGGSGGGGSQVQLVQSGAEVKKPGASVKVSCKASGYTFTDYYMHWVRQAPGQGLEWMGYFNPYNDYTRYAQKFQGRVTMTRDTSTSTVYMELSSLRSEDTAVYYCARSDGYYDAMDYWGQGTTVTVSSSEPKSSDKTHTCPPCPAPEAAGAPSVFLFPPKPKDTLMISRTPEVTCVVVDVSHEDPEVKFNWYVDGVEVHNAKTKPREEQYNSTYRVVSVLTVLHQDWLNGKEYKCAVSNKALPAPIEKTISKAKGQPREPQVYTLPPSRDELTKNQVSLTCLVKGFYPSDIAVEWESNGQPENNYKTTPPVLDSDGSFFLYSKLTVDKSRWQQGNVFSCSVMHEALHNHYTQKSLSLSPGK
notes: Monospecific bivalent anti-PSMA scFv-Fc, scFv in VL-VH orientation
[2]
  Kd: 40 nM
全长食蟹猴PSMA
  binding result: binds

B3: CRIS7H16 (scFv, V domains shown)
VH: QVQLVQSGAEVKKPGASVKVSCKASGYTFTRSTMHWVRQAPGQGLEWIGYINPSSAYTNYAQKFQGRVTLTADKSTSTAYMELSSLRSEDTAVYYCASPQVHYDYNGFPYWGQGTLVTVSS
VL: DIQMTQSPSSLSASVGDRVTITCRASSSVSYMNWYQQKPGKAPKRWIYDSSKLASGVPSRFSGSGSGTDFTLTISSLQPEDFATYYCQQWSRNPPTFGQGTKVEIK
notes: also called H16 CD3结合结构域
[3]
  binding result: binds

Reference: patent CN117242096A (APTEVO RES AND DEVELOPMENT LIMITED, dated 2023)
